{"source": "patent US20180264072A1", "about": "(PARIS SCIENCES ET LETTRES QUARTER LATIN, published 2018)", "binders": {"B1": {"name": "IpaA 483-633 (A483) (other)", "chain": "GDTYLTRETIFEASKKVTNSLSNLISLIGTKSGTQERELQEKSKDITKSTTEHRINNKLKVTDANIRNYVTETNADTIDKNHAIYEKAKEVSSALSKVLSKIDDTSAELLTDDISDLKNNNDITAENNNIYKAAKDVTTSLSKVLKNINKD"}, "B2": {"name": "IpaA 524-633 (A524) (other)", "chain": "KSKDITKSTTEHRINNKLKVTDANIRNYVTETNADTIDKNHAIYEKAKEVSSALSKVLSKIDDTSAELLTDDISDLKNNNDITAENNNIYKAAKDVTTSLSKVLKNINKD"}, "B3": {"name": "full-length human vinculin (HV) (other)", "chain": "MPVFHTRTIESILEPVAQQISHLVIMHEEGEVDGKAIPDLTAPVAAVQAAVSNLVRVGKETVQTTEDQILKRDMPPAFIKVENACTKLVQAAQMLQSDPYSVPARDYLIDGSRGILSGTSDLLLTFDEAEVRKIIRVCKGILEYLTVAEVVETMEDLVTYTKNLGPGMTKMAKMIDERQQELTHQEHRVMLVNSMNTVKELLPVLISAMKIFVTTKNSKNQGIEEALKNRNFTVEKMSAEINEIIRVLQLTSWDEDAWASKDTEAMKRALASIDSKLNQAKGWLRDPSASPGDAGEQAIRQILDEAGKVGELCAGKERREILGTCKMLGQMTDQVADLRARGQGSSPVAMQKAQQVSQGLDVLTAKVENAARKLEAMTNSKQSIAKKIDAAQNWLADPNGGPEGEEQIRGALAEARKIAELCDDPKERDDILRSLGEISALTSKLADLRRQGKGDSPEARALAKQVATALQNLQTKTNRAVANSRPAKAAVHLEGKIEQAQRWIDNPTVDDRGVGQAAIRGLVAEGHRLANVMMGPYRQDLLAKCDRVDQLTAQLADLAARGEGESPQARALASQLQDSLKDLKARMQEAMTQEVSDVFSDTTTPIKLLAVAATAPPDAPNREEVFDERAANFENHSGKLGATAEKAAAVGTANKSTVEGIQASVKTARELTPQVVSAARILLRNPGNQAAYEHFETMKNQWIDNVEKMTGLVDEAIDTKSLLDASEEAIKKDLDKCKVAMANIQPQMLVAGATSIARRANRILLVAKREVENSEDPKFREAVKAASDELSKTISPMVMDAKAVAGNISDPGLQKSFLDSGYRILGAVAKVREAFQPQEPDFPPPPPDLEQLRLTDELAPPKPPLPEGEVPPPRPPPPEEKDEEFPEQKAGEVINQPMMMAARQLHDEARKWSSKGNDIIAAAKRMALLMAEMSRLVRGGSGTKRALIQCAKDIAKASDEVTRLAKEVAKQCTDKRIRTNLLQVCERIPTISTQLKILSTVKATMLGRTNISDEESEQATEMLVHNAQNLMQSVKETVREAEAASIKIRTDAGFTLRWVRKTPWYQ"}, "B4": {"name": "vinculin D1 domain (HVD1) (other)", "chain": "MPVFHTRTIESILEPVAQQISHLVIMHEEGEVDGKAIPDLTAPVAAVQAAVSNLVRVGKETVQTTEDQILKRDMPPAFIKVENACTKLVQAAQMLQSDPYSVPARDYLIDGSRGILSGTSDLLLTFDEAEVRKIIRVCKGILEYLTVAEVVETMEDLVTYTKNLGPGMTKMAKMIDERQQELTHQEHRVMLVNSMNTVKELLPVLISAMKIFVTTKNSKNQGIEEALKNRNFTVEKMSAEINEIIRVLQLTSWDEDAW", "notes": "also called D1 domain of vinculin"}}, "key": {"[1]": {"biological_target": "B4", "assay": "size exclusion chromatography; stoichiometry listed for the complex"}, "[2]": {"biological_target": "B3", "assay": "solid phase (ELISA) assay, HV coated, A483 in solution"}, "[3]": {"biological_target": "B4", "assay": "solid phase (ELISA) assay, HVD1 coated, A483 in solution"}, "[4]": {"biological_target": "B3", "assay": "solid phase (ELISA) assay, HV coated, A524 in solution"}, "IpaA 483-633 (A483)": {"biological_target": "B1", "assay": "solid phase (ELISA) assay, A483 coated, HV in solution"}, "IpaA 524-633 (A524)": {"biological_target": "B2", "assay": "solid phase (ELISA) assay, A524 coated, HV in solution"}, "talin H1-H4": {"biological_target": "T1, talin H1-H4", "T1 construct": "domain: H1-H4; also called TlnH1-H4; T1nH1-H4", "T1 sequence (P26039 482-636)": "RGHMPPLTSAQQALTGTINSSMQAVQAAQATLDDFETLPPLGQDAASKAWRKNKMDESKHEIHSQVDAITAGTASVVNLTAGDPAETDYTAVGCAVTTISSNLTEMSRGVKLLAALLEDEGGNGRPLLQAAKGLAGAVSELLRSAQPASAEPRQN", "assay": "size exclusion chromatography; stoichiometry listed for the complex"}}, "data": [{"binder": "B1", "values": [{"measurement": "stoichiometry", "setting": "[1]", "result": "1 molar ratio of the complex (1:1)"}, {"measurement": "EC50 (read off the curve)", "setting": "[2]", "result": "0.2 to 0.3", "unit": "nM"}, {"measurement": "EC50 (read off the curve)", "setting": "[3]", "result": "~0.8", "unit": "nM"}]}, {"binder": "B2", "values": [{"measurement": "EC50 (read off the curve)", "setting": "[4]", "result": "~0.3", "unit": "nM"}]}, {"binder": "B3", "values": [{"measurement": "EC50 (read off the curve)", "setting": "IpaA 483-633 (A483)", "result": "~5", "unit": "nM"}, {"measurement": "EC50 (read off the curve)", "setting": "IpaA 524-633 (A524)", "result": "~4", "unit": "nM"}]}, {"binder": "B4", "values": [{"measurement": "stoichiometry", "setting": "talin H1-H4", "result": "1 molar ratio of the complex (1:1)"}]}]}
